Test results reported in patent publication US20140050749A1 (PURDUE PHARMA L P, published 2014).
Where no end group is shown, it is not given here. [ ]: non-standard residue; d: D form. Gly(cPent) = N[C@H](C(=O)O)C1CCCC1

B1: E-[c5g]-AGIG-[amv]-LTV (peptide)
peptide: EXAGIGXLTV
modifications: [c5g] (aminocyclopentyl carboxylic acid) at position 2; [amv] at position 7 (abbreviation not defined in the filing)
notes: MART-1 decamer derivative with a double substitution

biological target: T1, HLA-A2 (HLA-A0201) MHC class I complex (human); assay: ITopia soluble class I plate-based stability assay, 37 C
T1 construct: the methods section names HLA-A0201; also called HLA-A201; MHCI
Experimental: (§1) MHCI complexes were dissociated in each test well using stripping buffer, and the place-holder peptide and beta 2 microglobulin were washed away. 100 uM of the test peptide was added to appropriate wells along with additional beta 2 microglobulin and the anti-HLA ABC antibody, and the plates were incubated overnight at 21° C. Plates were washed, and fresh buffer was added to each well. Plates were shifted to 37° C., and the appropriate wells were read at 0, 0.5, 1, 1.5, 2, 4, 6 and 8 hours.

Binder | Half Life of Complex
B1 | 11.9 h
KVRRAIEQL [Native Survivin 130-138 peptide KVRRAIEQL] | 1.9 h
AXGIGILTV ([cpg] (L-cyclopentylglycine) at position 2, MART-1 nonamer derivative) [A-[cpg]-GIGILTV] | > 100 h
ISTFKNWPF [Native Survivin 19-27 peptide ISTFKNWPF] | 0.24 h
K[Gly(cPent)]RRAIEQL (Survivin 130-138 derivative) [K-[cpg]-RRAIEQL] | 50.6 h
I[Gly(cPent)]TFKNWPF (Survivin 19-27 derivative) [I-[cpg]-TFKNWPF] | 1.9 h

biological target: T1, HLA-A2 (HLA-A0201) MHC class I complex; assay: ITopia soluble class I plate-based stability assay; reference is the native survivin peptide (SEQ ID NO: 31)
Experimental: as §1

Binder | fold increase in the half life of the HLA-A2 peptide complex compared to the native survivin peptide
K[Gly(cPent)]RRAIEQL (Survivin 130-138 derivative) [K-[cpg]-RRAIEQL] | > 20 fold
